Assays:
[1] = target: T1, α5β1 integrin (fibronectin receptor) on cytokine-activated human umbilical vein endothelial (HUVE) cells (human, UniProt P08648 42-1049; P05556 21-798); experiment: conclusion of the uptake inhibition experiments on IC-activated HUVE cells
T1 construct: whole, on cells; also called FN receptor

[2] = target: T2, αvβ3 integrin (vitronectin receptor) on cytokine-activated human umbilical vein endothelial (HUVE) cells (human, UniProt P06756 31-1048; P05106 27-788); experiment: as above
T2 construct: whole, on cells; also called VN receptor
T2 sequence (P06756 31-1048, chain 1 of 2): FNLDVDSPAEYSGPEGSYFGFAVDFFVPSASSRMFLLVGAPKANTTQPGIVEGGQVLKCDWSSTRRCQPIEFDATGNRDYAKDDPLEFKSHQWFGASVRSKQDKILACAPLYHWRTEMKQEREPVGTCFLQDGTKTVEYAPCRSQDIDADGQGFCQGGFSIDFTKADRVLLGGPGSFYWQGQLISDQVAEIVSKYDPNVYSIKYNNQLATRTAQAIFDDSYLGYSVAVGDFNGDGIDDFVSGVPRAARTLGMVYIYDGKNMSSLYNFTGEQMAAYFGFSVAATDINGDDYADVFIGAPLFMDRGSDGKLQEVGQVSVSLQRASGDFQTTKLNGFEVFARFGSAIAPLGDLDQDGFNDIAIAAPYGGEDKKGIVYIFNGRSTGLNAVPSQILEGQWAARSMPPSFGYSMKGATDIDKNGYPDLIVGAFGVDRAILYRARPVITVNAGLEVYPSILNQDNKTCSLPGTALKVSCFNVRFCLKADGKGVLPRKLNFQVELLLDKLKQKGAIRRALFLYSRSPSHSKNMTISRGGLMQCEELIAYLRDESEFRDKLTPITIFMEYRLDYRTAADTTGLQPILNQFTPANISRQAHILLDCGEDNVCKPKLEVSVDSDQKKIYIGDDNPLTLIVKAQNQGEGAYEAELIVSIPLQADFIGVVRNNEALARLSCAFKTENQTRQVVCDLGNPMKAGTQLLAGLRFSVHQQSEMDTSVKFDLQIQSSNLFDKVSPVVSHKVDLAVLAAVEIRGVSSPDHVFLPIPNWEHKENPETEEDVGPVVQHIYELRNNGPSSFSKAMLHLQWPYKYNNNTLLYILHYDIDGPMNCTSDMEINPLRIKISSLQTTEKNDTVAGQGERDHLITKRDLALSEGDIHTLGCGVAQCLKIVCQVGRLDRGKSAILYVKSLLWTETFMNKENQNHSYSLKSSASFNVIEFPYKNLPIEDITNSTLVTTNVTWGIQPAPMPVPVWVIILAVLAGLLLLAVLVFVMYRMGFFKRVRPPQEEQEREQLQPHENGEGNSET
T2 sequence (P05106 27-788, chain 2 of 2): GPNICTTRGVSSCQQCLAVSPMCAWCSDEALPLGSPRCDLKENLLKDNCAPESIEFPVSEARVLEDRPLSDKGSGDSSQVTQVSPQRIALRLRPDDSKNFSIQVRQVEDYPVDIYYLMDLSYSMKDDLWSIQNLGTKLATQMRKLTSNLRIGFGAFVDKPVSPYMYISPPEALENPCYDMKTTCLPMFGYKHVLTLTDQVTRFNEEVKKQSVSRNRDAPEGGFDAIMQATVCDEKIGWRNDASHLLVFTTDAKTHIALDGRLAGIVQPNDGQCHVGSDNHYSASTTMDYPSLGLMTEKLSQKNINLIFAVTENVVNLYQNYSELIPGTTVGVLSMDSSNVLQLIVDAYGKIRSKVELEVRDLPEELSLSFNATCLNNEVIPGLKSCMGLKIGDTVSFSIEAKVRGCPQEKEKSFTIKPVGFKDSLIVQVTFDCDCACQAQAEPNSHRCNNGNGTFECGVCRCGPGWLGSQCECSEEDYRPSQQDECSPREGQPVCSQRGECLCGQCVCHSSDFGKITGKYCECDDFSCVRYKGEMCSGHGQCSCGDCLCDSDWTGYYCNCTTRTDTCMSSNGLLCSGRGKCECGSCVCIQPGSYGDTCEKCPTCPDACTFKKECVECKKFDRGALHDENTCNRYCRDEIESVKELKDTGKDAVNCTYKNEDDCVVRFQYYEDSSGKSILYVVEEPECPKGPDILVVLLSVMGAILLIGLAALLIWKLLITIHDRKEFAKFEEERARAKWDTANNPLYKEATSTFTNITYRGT

T1 sequence (P08648 42-1049, chain 1 of 2): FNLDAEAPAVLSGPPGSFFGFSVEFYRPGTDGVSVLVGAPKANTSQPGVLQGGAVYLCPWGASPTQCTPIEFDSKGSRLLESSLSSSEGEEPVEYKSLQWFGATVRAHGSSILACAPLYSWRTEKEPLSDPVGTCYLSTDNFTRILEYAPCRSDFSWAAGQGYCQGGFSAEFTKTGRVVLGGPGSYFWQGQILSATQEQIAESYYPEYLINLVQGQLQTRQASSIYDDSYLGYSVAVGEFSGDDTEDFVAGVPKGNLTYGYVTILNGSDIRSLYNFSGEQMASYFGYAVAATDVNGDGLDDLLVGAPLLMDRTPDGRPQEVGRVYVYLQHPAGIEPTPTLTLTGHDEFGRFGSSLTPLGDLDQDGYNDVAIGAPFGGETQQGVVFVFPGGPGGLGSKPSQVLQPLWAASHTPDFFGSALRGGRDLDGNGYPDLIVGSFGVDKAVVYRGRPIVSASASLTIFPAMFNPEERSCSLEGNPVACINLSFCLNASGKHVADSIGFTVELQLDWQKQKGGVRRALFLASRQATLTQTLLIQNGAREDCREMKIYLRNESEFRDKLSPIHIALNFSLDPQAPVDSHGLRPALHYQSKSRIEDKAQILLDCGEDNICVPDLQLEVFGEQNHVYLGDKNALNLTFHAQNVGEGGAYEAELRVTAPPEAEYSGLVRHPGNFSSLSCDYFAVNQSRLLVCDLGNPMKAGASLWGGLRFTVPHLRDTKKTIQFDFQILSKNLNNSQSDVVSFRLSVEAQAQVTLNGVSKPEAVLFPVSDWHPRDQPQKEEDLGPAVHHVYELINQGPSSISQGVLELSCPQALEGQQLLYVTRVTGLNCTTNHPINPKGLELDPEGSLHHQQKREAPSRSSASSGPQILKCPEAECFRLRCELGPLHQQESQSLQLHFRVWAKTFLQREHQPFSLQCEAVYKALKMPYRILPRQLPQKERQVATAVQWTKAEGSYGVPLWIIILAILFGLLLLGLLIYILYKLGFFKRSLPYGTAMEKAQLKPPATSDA
T1 sequence (P05556 21-798, chain 2 of 2): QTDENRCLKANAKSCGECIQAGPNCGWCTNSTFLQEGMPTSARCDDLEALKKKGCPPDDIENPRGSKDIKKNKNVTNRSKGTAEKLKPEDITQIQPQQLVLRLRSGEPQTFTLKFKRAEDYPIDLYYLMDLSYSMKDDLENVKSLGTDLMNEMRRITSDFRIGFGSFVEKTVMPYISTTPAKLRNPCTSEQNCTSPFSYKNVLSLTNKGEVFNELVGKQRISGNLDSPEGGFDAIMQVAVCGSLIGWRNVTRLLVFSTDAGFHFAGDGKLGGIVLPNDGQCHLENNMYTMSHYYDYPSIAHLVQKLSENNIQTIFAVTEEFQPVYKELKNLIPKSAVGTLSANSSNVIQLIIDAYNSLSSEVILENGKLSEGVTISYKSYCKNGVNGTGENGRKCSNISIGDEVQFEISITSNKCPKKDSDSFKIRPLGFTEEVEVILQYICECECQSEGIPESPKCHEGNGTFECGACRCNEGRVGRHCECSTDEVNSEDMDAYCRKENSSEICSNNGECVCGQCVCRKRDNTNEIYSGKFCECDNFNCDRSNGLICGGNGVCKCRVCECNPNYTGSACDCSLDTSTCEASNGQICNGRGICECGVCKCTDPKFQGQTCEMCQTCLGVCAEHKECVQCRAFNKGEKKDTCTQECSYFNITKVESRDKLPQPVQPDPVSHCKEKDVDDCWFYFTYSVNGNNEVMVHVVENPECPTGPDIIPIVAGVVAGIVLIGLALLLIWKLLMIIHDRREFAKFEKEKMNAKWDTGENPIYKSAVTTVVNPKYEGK

B1: rhodaminated Tat protein (other)
chain: MEPVDPRLEPWKHPGSQPKTACTNCYCKKCCFHCQVCFITKALGISYGRKKRRQRRRPPQGSQTHQVSLSKQPTSQSRGDPTGPKE
modifications: rhodaminated (TRITC) at lysine residues
notes: Recombinant Tat labelled with TRITC; also called rhodaminated biologically-active Tat protein
Question: Does B1 bind [1]?
Answer: binds

Question: Does B1 bind [2]?
Answer: binds
